One block for each substance: values may come before it.
Tests used:
[1] = molecular target: 16A-cys(i)-less (TMEM16A with all cysteines of the cytosolic portion replaced with serines); test: cross-linking; harvested transfected HEK-293 cells in PBS with 300 uM 1,5-pentanediyl bismethanethiosulfonate, 15 min, room temperature; stopped with Laemmli buffer or reversed with 33 mM DTT; SDS-PAGE and Western blot with SP31 antibody
[2] = molecular target: 16A-cys(i)-less R494C/K921C; test: as above
[3] = molecular target: TMEM16A fused to a fluorescent protein (eGFP-TMEM16A, TMEM16A-eGFP, TMEM16A-mCherry); test: FRET or BRET; acceptor photobleaching FRET, confocal microscope, HEK-293 cells co-transfected with eGFP-TMEM16A (donor) and TMEM16A-mCherry (acceptor): NT-CT configuration

TMEM16A fused to a fluorescent protein (eGFP-TMEM16A, TMEM16A-eGFP, TMEM16A-mCherry), sequence (Q5XXA6 whole entry, the tested form may be a part): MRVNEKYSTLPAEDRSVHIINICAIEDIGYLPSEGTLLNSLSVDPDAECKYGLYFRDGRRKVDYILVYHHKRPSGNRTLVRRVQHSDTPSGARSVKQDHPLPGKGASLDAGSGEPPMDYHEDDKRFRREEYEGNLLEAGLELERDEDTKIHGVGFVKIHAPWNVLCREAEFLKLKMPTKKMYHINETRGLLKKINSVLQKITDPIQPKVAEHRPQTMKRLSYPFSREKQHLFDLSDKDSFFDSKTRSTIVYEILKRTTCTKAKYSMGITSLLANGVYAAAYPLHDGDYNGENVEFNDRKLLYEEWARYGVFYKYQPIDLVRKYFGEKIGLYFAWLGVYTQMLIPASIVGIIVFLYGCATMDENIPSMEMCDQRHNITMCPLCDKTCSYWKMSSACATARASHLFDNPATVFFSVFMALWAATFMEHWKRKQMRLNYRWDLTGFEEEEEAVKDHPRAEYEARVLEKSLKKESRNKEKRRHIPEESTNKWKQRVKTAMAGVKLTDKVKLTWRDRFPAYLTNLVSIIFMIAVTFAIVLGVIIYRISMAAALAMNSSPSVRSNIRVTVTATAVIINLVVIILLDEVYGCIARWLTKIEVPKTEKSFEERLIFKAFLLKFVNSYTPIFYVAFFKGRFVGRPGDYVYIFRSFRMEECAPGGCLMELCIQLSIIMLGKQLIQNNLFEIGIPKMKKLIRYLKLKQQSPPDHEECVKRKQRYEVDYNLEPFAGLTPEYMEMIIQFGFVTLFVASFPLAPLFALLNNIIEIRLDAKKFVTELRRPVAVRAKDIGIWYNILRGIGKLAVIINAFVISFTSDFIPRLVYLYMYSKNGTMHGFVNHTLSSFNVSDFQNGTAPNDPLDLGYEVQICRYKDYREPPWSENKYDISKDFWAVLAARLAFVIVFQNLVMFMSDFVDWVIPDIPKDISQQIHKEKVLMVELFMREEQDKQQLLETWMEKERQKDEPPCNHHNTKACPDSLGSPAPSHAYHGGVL

stoichiometry N [1]: 2
Substance: 16A-cys(i)-less (TMEM16A with all cysteines of the cytosolic portion replaced with serines) (natural protein)

stoichiometry N [2]: 2
Substance: 16A-cys(i)-less R494C/K921C (natural protein)

FRET efficiency [3]: 7.44%
Substance: TMEM16A fused to a fluorescent protein (eGFP-TMEM16A, TMEM16A-eGFP, TMEM16A-mCherry) (natural protein)

From publication PMC5144075
